In the supplement of paper PMC9170038:

Test system: K4 kissing-loop RNA reporter
Experiment: apparent KD of K4 kissing-loop reporter; higher = weaker reporter binding
Conditions: Eterna round: R107
Experimental: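 RNA-MaP round R107: designed RNA switches with theophylline, tryptophan, arginine or FMN aptamers are transcribed on-chip within common flanks. They are titrated with a labelled K4 kissing-loop RNA reporter in RNA-MaP buffer (100 mM Tris pH 7.5, 80 mM KCl, 4 mM MgCl2), without ligand or with the indicated ligand. Median apparent KD per design.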

[1] = input ligand: theophylline 20 uM
[2] = input ligand: tryptophan 2.4 mM
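Further: bound reporter read as fluorescence of individual clusters on recovered sequencing chips by microscopy, with normalized cluster intensities fitted with a binding model.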

Sequence | apparent KD of K4 kissing-loop reporter (input ligand: FMN 200 uM) [nM] | apparent KD of K4 kissing-loop reporter (input ligand: arginine 13.2 mM) [nM] | apparent KD of K4 kissing-loop reporter (input ligand: none) [nM] | apparent KD of K4 kissing-loop reporter [1] [nM] | apparent KD of K4 kissing-loop reporter [2] [nM]
AUGCCUAUGACGGCCGCCACUGAGAGUCAGUGAUGUUGACUCGAUACAGCUGAUUAGCAGCUAAUCAGGACCGGGUCAUACACAU [Tryp B SS t3] | 243 | 158 | 244 | 245 | 123
GGUAGCAUGGCGGCCGCCACUAUCAGGAGUGAUGUUCCAACGCAGAGCUUCAGCUAGUGUGUAAAUAGGACCGGGCCAUGCUACC | 414 | 69.8 | 512 | 177 | 866
AAAGGAUCAGAGAGUGAUGUUCUCUAAUAACGAGGACCGGUACGGCCGCCACUCGAAGAUCCAAAAGUCCUACGAAAAGUAGGAC [Omei inspired 7] | 92.9 | 69.3 | 83.7 | 251 | 263
UGUUUUUACUGAAGGAGCGGCAAUUGAUACGUAGAUAUAGUGAUGUUAUAUAAGAUAGAGAGCCAGGUAGGUCGCAGAUUUUUUC [ExArgB.Y] | 179 | 201 | 164 | 172 | 136
CAUCACGCAAUCACGGAUGCAAGCAUUGAUACCAGAACCGAUUAUUUCCCUUGGCAGCAACACGGAGUGAUGUUCCUAGCAUAUA [theeternabot_sameState_KL_Theo_A_21] | 71.2 | 122 | 94 | 209 | 75.5
AAUUCAGUGAUGUUGGAAGGCAGGAGGGAUACCAGCGGAAAUAAACGCCCUUGGCAGCCCAAAUAUCCCAAAUAGAUAAUAAUUU [Same State - Theophylline A (Freestyle 1)] | 581 | 381 | 610 | 607 | 563
AUCGUUGUCUGAGGAUAUCGGUUAUCUGUAGUGAUGUUACAGUAUAUUCAUAUUAUACUUUCUAUUCGAGAAGGCAGACUACGUA [JR_Nu_ExcFMNB_Sub020] | 169 | 80.5 | 82.5 | 74.8 | 82.9
AGUGAUGUUGUGUUAUGUUUGGGAAGUGAUCGAGGACCGGUACGGCCGCCACUCGAGUGAUGAGUGAGUGAUGUUUGUUUAGGGA [whbob_SS_Tryp_A_m9] | 1060 | 698 | 962 | 1120 | 498
UAAUGUGGCACAGGAUAUACUGAUUGGAGUGAUGUUCCAAACAUGGACGUGAGACUUUUACAAGAAGUAGAAGGGUGUUAGAUAU [Exclusion FMN B GF 20] | 241 | 298 | 304 | 448 | 306
UUUUAUUAGUAGUGAUGUUACUAAACUGAAGGAGCGAGAUUUAACUCAGGUAGGUCGCAGAAAAUCAAUUAAUUUAUAAAUUAAA [JR_SSArginiA_Sub011] | 97.7 | 87.8 | 99.8 | 87.2 | 94.6
AUGCUGUCGGCGUUAAAGUAGUAAUGUGAUACCAGAAAUGCUGUGUUCCCUUGGCAGCACAUUCUUACAGACAGUGAUGUUGUCU [theeternabot_exclusion_KL_Theo_A_8] | 414 | 315 | 391 | 390 | 336
AAUGUACAAGUGAUGUUUGUACUUUCCGAAGGAGCGUCUAAUAAGACAGGUAGGUCGCGGAUUCUCUUAAUUAUCAGGUCAUUAA [JR_ExcArginiA_Sub017] | 89.6 | 81.3 | 86.2 | 80.6 | 81.6
GGUGUUGUUUGUGCUGUUUUCUUCGUUUCUCGAGGACCGGUACGGCCGCCACUCGAGUGAUGUUUGGGUAGCGAUGUUUGUUAGU [Bdazzled - #3 - Exc. Tryptophan A] | 473 | 287 | 373 | 360 | 470
UGGAUAUAGUGAUGUUAUAUAGAGAUGGAUACCAGCAGAGAGAAUUGCCCUUGGCAGCCGAAAGAAGUAUCAUUAGAGAAGAAUG [ExTheophyl.Ai] | 208 | 180 | 253 | 214 | 210
AUUCUUUUUUUGAUGUUUUUUGUAUAAUGGCAGGAUAUCGUAGAAGCGAGAAGGGCUUUUAUGCGUUAUGAGUGAUGUUUGUAGG [szeewvmullin] | 254 | 262 | 261 | 340 | 205
AAAAUAAAAGCAGUCAUCGGAGUGAUGUUCCGAGGACCGGUACGGCCGCCACUCGACCAGACAAAGUCUGGAUGGCGAGACUGCA [#SwitchBubble 18 #K4Early] | 83.6 | 85.1 | 102 | 91.4 | 85.6
UAUAUAGUGACGGCCGCCACUAUUGUGAUUUAAUUGUUAGAGUGAUGUUUUGUUGUUUGAUUUUGUAGGACCGGGUUAUAUGUUA [vnbbwzmullin] | 1090 | 851 | 982 | 794 | 839
GCAGUGAUGUUGCGGAUGUACAGUGGCGUGCGAGGACCGGUACGGCCGCCACUCGUACAGAGCCAGCUAAUACAUCGAUUGGUGA [whbob_SS_Tryp_A_m7] | 387 | 176 | 206 | 157 | 212
AAACAUCACUGGGAGUGAUGUUCUCAGUGACGAGGACCGGUACGGCCGCCACUCGCGAGAGAUUUAGUCUAGUAUUGACUGCAUU [Excl Tryptophan A V11] | 294 | 273 | 304 | 353 | 358
CUGUAUCAUAUUGAUACCAGAGAAAGAACCAGUGAUGUUGGAAAAGACGAAUAAAUUAUACUCCCUUGGCAGCGGAAAUGAACAG [Totally accidental] | 73 | 85.6 | 75.8 | 105 | 59.9
AGUGAUGUGGGAAGGAGCGCUACAUCACUUCAGUGAUGUUGAAGUGAUGAAUUAGUGAUGUAGCAGGUAGGUCGCCUAGAUGUUA [KL-XARG-B12] | 76.3 | 38.5 | 58.3 | 60.8 | 51.3
GAGGAUUGAACGGCCGCCACUGCGCGCAGCUGCAAUCGAGUGAUGUUCCAUCAGUUGUCCAGUUCCAGGACCGGGUUCCGAUGCC [theeternabot_exclusion_KL_Trp_B_12] | 499 | 245 | 401 | 535 | 471

Sequence | apparent KD of K4 kissing-loop reporter (input ligand: FMN 200 uM) [nM] | apparent KD of K4 kissing-loop reporter (input ligand: arginine 13.2 mM) [nM] | apparent KD of K4 kissing-loop reporter (input ligand: none) [nM] | apparent KD of K4 kissing-loop reporter [1] [nM] | apparent KD of K4 kissing-loop reporter [2] [nM]
UGUCAUUGGUCUGAUACCAGAAGAAUCUGGAGUGAUGUUCCAAGUCGAUCAAAAGAUCGCUUCCCUUGGCAGCAGACCGAUGACU [TheoBS 24 #SwitchBubble 13 #StaticStem] | 315 | 291 | 300 | 188 | 298
UUAAUAAUUCAAGGAUAUGUUUUUUUUUUCGAGUGAUGUUCGGAAUUAAUAAAUUUAAAAGAUUAUACAGAAGGUGAUAAAUAGU [Cynwulf-mod#1] | 103 | 91 | 88.3 | 103 | 88.6
GUCCAACCUGGAGGAUAUCUGCUGUCCAGUGAUGUUGGACACCUUAGUAAAGGCCGGGUAGCCCGCAGAGAAGGCCGGAGUUGCC [Isateron] | 265 | 354 | 429 | 390 | 329
AAGUGUGUGGCGGCCGCCACUAGAAUCCAGUGAUGUUGGAGAUAUCACGUAAGUGAUAUCCAUCAUAGGACCGGGCCAUAUAGAA [Same State - Tryptophan B (Freestyle 18)] | 675 | 389 | 945 | 1280 | 755
AUUUAUGUUUCGGCCGCCACUCCACGUACUCAGAGAGAGUGAUGUUCUUUUUAUUAACGUCUAUGGAGGACCGGGAAGAGGUGAG [theeternabot_exclusion_KL_Trp_B_37] | 672 | 640 | 930 | 931 | 536
AAUAAUCUAGGUGAUACCAGCUCAACAUGAGUGAUGUUCAUGAAAUAAUGUAGAGUUGAGAGCCCUUGGCAGCACCUAGAUAAUA [KL-SSTheoB5] | 264 | 222 | 239 | 178 | 240
UGACUGGACUGAAGGAGCGCUAAACUCCUAGUGAUGUUAGGAUAACGAGACAAAGUCUCGAGGCAGGUAGGUCGCAGUCUAGUCU | 128 | 134 | 131 | 137 | 128
AAGGCCACGAGAAGGAGCGUGCUGUGGAGUGAUGUUCCAUUGUAGACCUAAGGUCUACGAGCACAGGUAGGUCGCUCGUGGUCAA [Omei KL Arginine B SS A v4] | 113 | 97.4 | 95.3 | 102 | 99.6
GCCGUACGCAUGGAUACCAGCAAUCAAACGUCAUGCGAAGUGAUGUUUCGCUUACGGUAGUGCCCUUGGCAGCCAUGCGUACGGC | 142 | 124 | 123 | 91.2 | 130
UGAUACCAGACGGCCGCCACUCUUGCAGUCAAAGACUGCUAAAAGGAAAUCGUCCAGUGAUGUUGGAGGACCGGGUCUGGUAUCU [TrypBX 15 #SwitchBubble #Palindromic #StaticStem] | 1420 | 774 | 1370 | 774 | 736
AGGCACGAGCAAGGAUAUCGAGUAGAGUGAUGUUCUGCCUGGGUUGGCCCGAAAGGGCCUUCCCAGCGAGAAGGUGCUCGUGCCU [#2 Same State - FMN A Attempt #9 (HarryS)] | 222 | 588 | 766 | 492 | 863
GUGCGGCUAGUGAUGUUGGUUGCGUGGGAAGGAGCGCAGAAACAUGCAGGUAGGUCGCCCACACCUCUGAAAGGAGGUUAAUUCA [Diusdige] | 200 | 172 | 133 | 171 | 248
CUCGUGGGUUUGAGAGGGCUUGUGGGAAGUAAGGAUAUUUAGGGAGGAAGAAGGUACUAUAGAAUAUAGUGAUGUUAUAUAUGGG [SSFMNA.Y] | 301 | 224 | 289 | 406 | 244
CGUUCCUCUGUCGAUACCAGCUUCAGUUGGCGGCCAGUGAUGUUGGUAUUGCCGAUGCCAAGCCCUUGGCAGCGAUAUGAGACCC [Aredi] | 572 | 403 | 597 | 265 | 439
GCUAGGAUGGCAGGAUAUAGUUCGUGAGUGAUGUUCAAAGAACUAAGAGGGACACCUCAUUCUAAACUAGAAGGGCCAUCCUAGC | 246 | 275 | 276 | 421 | 337
GUUACGCAUGGAAGGAGCGCUCUCAGGCUUAAUAACACAGUGAUGUUGUGAAUUUGCCUAAAGCAGGUAGGUCGCCAUGUGUAAC [Ex Arginine B K4 9] | 426 | 400 | 440 | 423 | 392
GGUUUUAACCGCAGUGAUGUUGCGUUGAAACGAGGACCGGUACGGCCGCCACUCGAAAAGAAGCGGCCAAAUUAAAAUCGUAAAG [Exclusion Tryptophan A GF 23] | 129 | 162 | 144 | 164 | 114
GGUAUCCAGUACCAUUGCGUUAAAACAGAAGGAGCGAGAAUAGACUCAGGUAGGUCGCUGUUUAUAGUCGAGUGAUGUUCGAAUC [Same State Arginine A GF 14] | 202 | 281 | 265 | 315 | 188
UUUAUGAGGUCGGCCGCCACUGGAUUUAUGUUUGUUUCGUCUGGAUCAAAGUGAUGUUUUGAGUCCAGGACCGGGACAUUUGUUA [whbob_Ex_Tryp_B_w40] | 85.3 | 76.3 | 80.5 | 76.8 | 94
CGUUUAUAGCAGGAUACCAGUACGGAUAAAGUACGUUAAUAGUAGAGUGAUGUUCUAAAGUACCCUUGGCAGCUUAGAGUGAGUG [ExTheophylB.O] | 107 | 149 | 112 | 144 | 78.1
AGCGGCCAGUCGGCCGCCACUCCAGGCAGUGAUGUUGCGAAGUUUCUACUAGAGUGAUGUUCUAAGAGGACCGGGACUGACGUAA [Exclusion Tryptophan B Gf 9] | 217 | 218 | 253 | 291 | 199
